The results in this text go back to publication PMC6736649.

What all share (test): ITC
On the technique in general: Isothermal titration calorimetry measures the heat released or taken up as one component is titrated into another.

For one assay, the target named is FEZ1_(178–188) (human).
Assay [1] has as its target FEZ1_(92–198 182EA) (human) (UniProt Q99689).
The target in a further assay is FEZ1_(92–198) (human) (UniProt Q99689).

In the assay with FEZ1_(178–188) (human), “Disulfide-crosslinked CA (A14C/E45C) hexamer (complex)” registered an equilibrium dissociation constant (Kd) of 180 nM and a stoichiometry N (CA hexamer to FEZ1 (178–188)) of 1. In assay [1], this substance yielded a stoichiometry N (CA hexamer to FEZ1) of 1.6. Also, in the assay with FEZ1_(92–198) (human), the Kd turned out to be 300 nM and the stoichiometry N (CA hexamer to FEZ1) was 1.3.

A word on the Kd: it is the concentration at which binding is half-saturated. Read a high Kd as weaker binding.
